Laboratory results taken from patent publication US20170260272A1 (Novartis, published 2017).
Where two headings read alike, the source gives them in different places.

B1: MOR021460 (antibody, human IgG1, lambda, L234A L235A, V domains shown)
VH: QVQLLESGGGLVQPGGSLRLSCAASGFTFSDYALHWVRQAPGKGLEWVSVISYQGGFIYYADSVKGRFTISRDNSKNTLYLQMNSLRAEDTAVYYCARSPGLTSYHDSWGQGTLVTVSS
VL: DIVLTQPPSVSGAPGQRVTISCSGSSSNIGSNYVSWYQQLPGTAPKLLIHSNSHRPSGVPDRFSGSKSGTSASLAITGLQAEDEADYYCQSWDYESERVVFGGGTKLTVLG
notes: also called MOR21460
B2: MOR021468 (antibody, human IgG1, lambda, L234A L235A, V domains shown)
VH: QVQLLESGGGLVQPGGSLRLSCAASGFTFSDYALHWVRQAPGKGLEWVSVISYAGGFKFYADSVKGRFTISRDNSKNTLYLQMNSLRAEDTAVYYCARSPGLTSYHDSWGQGTLVTVSS
VL: DIVLTQPPSVSGAPGQRVTISCSGSSSNIGSNYVSWYQQLPGTAPKLLIHSNSHRPSGVPDRFSGSKSGTSASLAITGLQAEDEADYYCQSWDYESERVVFGGGTKLTVLG
notes: also called MOR21468
B3: MOR021453 (antibody, human IgG1, lambda, L234A L235A)
heavy: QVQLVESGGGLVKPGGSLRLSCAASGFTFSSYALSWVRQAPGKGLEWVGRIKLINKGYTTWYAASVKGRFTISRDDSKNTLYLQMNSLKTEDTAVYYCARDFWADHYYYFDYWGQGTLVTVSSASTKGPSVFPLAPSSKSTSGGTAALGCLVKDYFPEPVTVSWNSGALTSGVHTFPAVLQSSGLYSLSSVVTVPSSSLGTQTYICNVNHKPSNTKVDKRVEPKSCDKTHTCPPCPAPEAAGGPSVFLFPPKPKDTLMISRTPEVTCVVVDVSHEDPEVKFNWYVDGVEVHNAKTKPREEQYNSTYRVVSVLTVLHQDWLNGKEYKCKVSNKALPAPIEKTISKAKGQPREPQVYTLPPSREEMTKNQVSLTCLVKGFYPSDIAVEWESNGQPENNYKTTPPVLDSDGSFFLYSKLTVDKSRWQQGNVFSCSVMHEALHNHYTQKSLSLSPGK
light: DIALTQPASVSGSPGQSITISCTGTSSDVGYINYVNWYQQHPGKAPKLMIYEVSNRPSGVSNRFSGSKSGNTASLTISGLQAEDEADYYCASWDWYDNVVFGGGTKLTVLGQPKAAPSVTLFPPSSEELQANKATLVCLISDFYPGAVTVAWKADSSPVKAGVETTTPSKQSNNKYAASSYLSLTPEQWKSHRSYSCQVTHEGSTVEKTVAPTECS
notes: also called MOR21453
B4: MOR021452 (antibody, human IgG1, lambda, L234A L235A)
heavy: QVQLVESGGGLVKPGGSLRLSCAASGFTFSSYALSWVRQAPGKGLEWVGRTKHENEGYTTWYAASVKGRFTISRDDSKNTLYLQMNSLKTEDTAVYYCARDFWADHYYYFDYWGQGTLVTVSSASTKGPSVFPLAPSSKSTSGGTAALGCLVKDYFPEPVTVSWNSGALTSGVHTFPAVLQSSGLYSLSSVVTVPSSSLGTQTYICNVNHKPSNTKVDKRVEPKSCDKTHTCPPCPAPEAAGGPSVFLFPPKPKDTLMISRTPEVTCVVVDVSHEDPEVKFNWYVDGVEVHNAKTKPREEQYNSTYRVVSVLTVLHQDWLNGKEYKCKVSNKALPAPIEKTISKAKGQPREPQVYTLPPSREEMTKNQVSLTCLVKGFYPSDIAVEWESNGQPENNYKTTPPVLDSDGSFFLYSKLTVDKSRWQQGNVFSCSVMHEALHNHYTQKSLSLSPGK
light: DIALTQPASVSGSPGQSITISCTGTSSDVGYINYVNWYQQHPGKAPKLMIYEVSNRPSGVSNRFSGSKSGNTASLTISGLQAEDEADYYCASWDWYDNVVFGGGTKLTVLGQPKAAPSVTLFPPSSEELQANKATLVCLISDFYPGAVTVAWKADSSPVKAGVETTTPSKQSNNKYAASSYLSLTPEQWKSHRSYSCQVTHEGSTVEKTVAPTECS
notes: also called MOR21452
B5: MOR021433 (antibody, human IgG1, kappa, L234A L235A, V domains shown)
VH: QVQLVQSGAEVKKPGSSVKVSCKASGGTFSDYAISWVRQAPGQGLEWMGGIMPISGAPYYAQKFQGRVTITADESTSTAYMELSSLRSEDTAVYYCARDSSTSYYYYFDYWGQGTLVTVSS
VL: DIQMTQSPSSLSASVGDRVTITCRASQDINSWLAWYQQKPGKAPKLLIYQASNLQSGVPSRFSGSGSGTDFTLTISSLQPEDFATYYCQQIDHTPFTFGQGTKVEIKR
notes: also called MOR21433
B6: MOR021435 (antibody, human IgG1, kappa, L234A L235A, V domains shown)
VH: QVQLVQSGAEVKKPGSSVKVSCKASGGTFSDYAISWVRQAPGQGLEWMGGIVPIVGTANYAQKFQGRVTITADESTSTAYMELSSLRSEDTAVYYCARDSSTSYYYYFDYWGQGTLVTVSS
VL: DIQMTQSPSSLSASVGDRVTITCRASQDINSWLAWYQQKPGKAPKLLIYQASNLQSGVPSRFSGSGSGTDFTLTISSLQPEDFATYYCQQMWQFPITFGQGTKVEIKR
notes: also called MOR21435

Columns and labels:
[1] = molecular target: T1, APP-Avi-soluble human LOX-1(61-273) (human, UniProt P78380 61-273); experiment: SET, IgG vs soluble human LOX-1
[2] = molecular target: T1, APP-Avi-soluble human LOX-1(61-273); experiment: SET, IgG vs soluble human LOX-1; remark: listed apart in the source
Method: (§1) Affinity determination for anti-LOX-1 IgGs using Solution Equilibrium Titration (SET) was basically performed as described in the literature (Friguet et al., 1985 J Immunol Methods 77: 305-319). The assays were performed in a 96-well polypropylene plate (Thermo Scientific, Catalog no. AB-1127) using a constant concentration of LOX-1 antibody mixed with different concentrations of non-biotinylated human or cynomolgus monkey LOX-1 protein and incubated at 22° C. for 14 hours with constant shaking (300 rpm).
(§2) On a pre-blocked MSD plate (Meso Scale Discovery, catalog no. L21SA) biotinylated human or cynomolgus monkey soluble LOX-1 protein was immobilized and washed afterwards. The equilibrium binding reactions were then applied to the MSD plate with immobilized LOX-1 and incubated for 30 min. The unbound material was removed by washing the plate, and the captured antibody was detected by adding Sulfo-tagged goat anti-human IgG (Meso Scale Discovery, catalog no. R3AJ-1). After incubation and washing 1×MSD read buffer T(Meso Scale Discovery, catalog no. R92TC-2) was added and the plate was developed using a Sector Imager 6000 (Meso Scale Discovery). The data were transferred to Excel for analysis and plotted using GraphPad Prism v5. The KD values were determined by fitting the data to the following equation: […]

[3] = molecular target: T2, APP-Avi-soluble cynomolgus monkey LOX-1(61-273) (cynomolgus monkey); experiment: SET, IgG vs soluble cynomolgus LOX-1
T2 construct: Non-biotinylated as titrated antigen in SET, biotinylated for capture on the plate; also called cyno sLOX-1; cynomolgus monkey soluble LOX-1
Method: as §1, §2

[4] = molecular target: T1, APP-Avi-soluble human LOX-1(61-273); experiment: competition ELISA: oxLDL binding to plate-bound biotinylated human sLOX-1
Method: NeutrAvidin 384 well plates were coated with 2.5 μg/ml biotinylated LOX-1 diluted in PBS. After blocking with 25% Block Ace (AbD Serotec, Cat#BUF029) in PBS, purified Fabs or IgGs diluted in PBS/1% BSA were added. Subsequently OxLDL (copper-sulfate oxidized LDL, Kalen Biomedical #770202) or MDA-LDL (Academy Biomedical, #20P-UMD-L102) ligand diluted in PBS/1% BSA were allowed to bind to coated LOX-1. Secondary antibody (HRP conjugated sheep anti ApoB IgG; The Binding Site) diluted 1:1,000 in PBS/1% BSA was added followed by addition of TMB substrate (Thermo Scientific). After 10 minutes 1M H2SO4 was added and absorbance was determined at 450 nm. During early screenings, Fab fragments were also tested in this oxLDL binding assay using Fab-containing crude E. coli lysates.
The ability of LOX-1 antibodies to inhibit oxLDL binding to LOX-1 protein was determined using the method described in Example 4. In addition to “high binding OxLDL” from Kalen Biomedical (catalog number 770212-7), which is generated by copper sulfate mediated oxidation of LDL, two other forms of modified LDL were tested in this assay: malondialdehyde modified LDL (Academy Bio-Medical Co. catalog number 20P-MD-L105) and hypochlorite modified LDL. Hypochlorite modified LDL was prepared according to the following procedure. Human LDL (Kalen Biomedical catalog number 770200-4) was diluted with PBS to a final concentration of 0.25 mg/mL. Sodium hypochlorite (NaOCI, JT Baker catalog number 9416-01) was then added to 0.1 mM final concentration. The solution was incubated at room temperate for 4 hours, then quenched by adding L-methionine to a final concentration of reaction by adding 5 μl of 100 mM Mehionine per 200 μl total volume.

[5] = molecular target: T1, APP-Avi-soluble human LOX-1(61-273); experiment: competition ELISA: AGE-BSA binding to plate-bound biotinylated human sLOX-1
Method: Purified APP-Avi-soluble human soluble LOX-1(61-273) protein prepared as described in Example 1 was biotinylated as described in Example 5. NeutrAvidin 384 well plates were coated with 5 μg/ml biotinylated LOX-1 diluted in bicarbonate buffer (Thermo Scientific). After blocking with PBS/2% BSA/0.1% Tween20/0.1% TritonX-100, purified Fabs or IgGs diluted in PBS/2% BSA/0.1% Tween20/0.1% TritonX-100 were added. Subsequently AGE-BSA ligand (R&D Systems, #BT4127) diluted in PBS/2% BSA/0.1% Tween20/0.1% TritonX-100 was allowed to bind to coated LOX-1. Streptavidin-HRP (R&D Systems) diluted 1:200 in PBS/2% BSA/0.1% Tween20/0.1% TritonX-100 was added followed by addition of TMB substrate (Thermo Scientific). After 10 minutes 1M H₂SO₄ was added and absorbance was determined at 450 nm. Assay performance was affected by the type of BSA used for blocking and diluent solutions. For optimal assay performance, BSA from Sigma (catalog #A4503) was used.

T2 sequence (chain, as listed by the source limits assumed): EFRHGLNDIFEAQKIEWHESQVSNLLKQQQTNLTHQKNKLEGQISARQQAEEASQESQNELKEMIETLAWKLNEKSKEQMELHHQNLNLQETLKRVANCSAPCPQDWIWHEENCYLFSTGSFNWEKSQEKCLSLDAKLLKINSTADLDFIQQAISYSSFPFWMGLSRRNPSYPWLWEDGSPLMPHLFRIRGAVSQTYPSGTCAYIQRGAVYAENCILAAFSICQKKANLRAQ

| Binder | Kd [1] [pM] | Kd [2] [pM] | Kd [3] [pM] | IC50 [4] [pM] | IC50 [5] [pM] |
| --- | --- | --- | --- | --- | --- |
| B1 | 0.3 | 0.3 | 0.7 | 4000 | 2100 |
| B2 | 0.65 | 0.6 | 0.5 | 4800 | 2400 |
| B3 | 4 | 4 | 7 | 2600 | 1600 |
| B4 | 7.5 | 10 | 7 | 3200 | 2200 |
| B5 | 2.5 | 3 | 4 | 2900 | 1400 |
| B6 | 6 | 5 | 5 | 2800 | 1700 |
